The source of these data is patent US20250327057A1, “NOVEL AMINOACYL-TRNA SYNTHETASE VARIANTS FOR GENETIC CODE EXPANSION IN EUKARYOTES” (VERAXA Biotech GmbH, priority 2021, published 2025).

Entries after “also recorded” stand apart in the source; their conditions may differ.

Experiment [1] relates to iRFP-EGFP^Y39TAG reporter in HEK293T cells. In words: FFC test of importance of Y306A and Y384F for incorporation of bulky ncAAs, Example 3. Type of experiment: cell-based. The method, then: These new PylRS variants as obtained from example 1 were tested in HEK293T cells utilizing a fluorescent reporter by fluorescent flow cytometry (FFC). The reporter contains an infrared fluorescent protein (iRFP) fused to enhanced green fluorescent protein (EGFP) which harbors an amber stop codon at position Y39 and is called iRFP-EGFP^Y39TAG. To analyze the incorporation efficiency for each new PylRS variant, transient transfection with different ncAAs and different amounts of ncAAs were performed.
The iRFP and EGFP signals were measured after 24 hours post transfection. Therefore, HEK293T cells were seeded in 24-well plate 16 hours prior to transfection. For the two-plasmid transfection, 1 μg of total DNA was used per well. The DNA was mixed with 50 μl of DMEM medium without Phenol Red and 3 μl of PEI were added. After 10 seconds of vortexing and a short centrifugation step, the DNA mixture was incubated 15 minutes in the hood, before it was added dropwise to the well. A master mix was prepared for all wells whenever suitable. After four hours of incubation, the medium was aspirated and fresh medium with different concentrations of ncAAs was added. The concentration of ncAA was 250 μM. After 20 hours of incubation, the iRFP and EGFP signal was analyzed with a flow cytometer analyzer (LSRFortessa™, BD Biosciences). Stock solutions for all ncAAs were prepared as described previously (Nikic, I., Kang, J. H., Girona, G. E., Aramburu, I. V. & Lemke, E. A. Labeling proteins on live mammalian cells using click chemistry. Nat. Protoc. 10, 780-791 (2015)).
To test, if the mutations Y306A and Y384F are really important for the incorporation of bulky ncAAs, these amino acids were changed back to their original amino acid residues by site directed mutagenesis in the case of the PylRS AF A1 variant.
The FFC test was with TCO*A, TCO-E and in addition with Boc using the variants PylRS A1, PylRS AF, PylRS AF A1 and PylRS MMA. PylRS MMA has the mutations 306M 309M 348A. FIG. 3 illustrates the data obtained by FFC in bar plots for the different ncAAs used. […] These bar plot illustrates on how much higher the incorporation efficiency is for each variant compared to PylRS AF.

Experiment [2] has the same test system. Briefly: Incorporation assay for cyclooctyne-lysine (SCO) by FFC, Example 4. It counts as cell-based. As to conditions: ncAA SCO, 15.625 μM to 500 μM, FIG. 5. The method, then: To test the incorporation efficiency of another ncAA by the new variant PylRS A1, an incorporation assay was performed utilizing HEK293T cells. The cells were co-transfected with a plasmid containing NES-PylRS A1 containing as well the corresponding tRNA^Pyl gene together with the reporter plasmid pCI-iRFP-EGFP^Y39TAG-6His (SEQ ID NO: 97). Different concentrations of SCO were added to the growth medium 4 hours after the transfection of the cells ranging from 15.625 μM to 500 μM SCO. After 20 hours of incubation, the iRFP and EGFP signal was analyzed with a flow cytometer analyzer (LSRFortessa™, BD Biosciences) as mentioned above.

B1: PylRS A1: M. mazei PylRS mutant L309M, C348G, I405R without Y306A/Y384F (SEQ ID NO: 70) (protein)
chain: MDKKPLNTLISATGLWMSRTGTIHKIKHHEVSRSKIYIEMACGDHLVVNNSRSSRTARALRHHKYRKTCKRCRVSDEDLNKFLTKANEDQTSVKVKVVSAPTRTKKAMPKSVARAPKPLENTEAAQAQPSGSKFSPAIPVSTQESVSVPASVSTSISSISTGATASALVKGNTNPITSMSAPVQASAPALTKSQTDRLEVLLNPKDEISLNSGKPFRELESELLSRRKKDLQQIYAEERENYLGKLEREITRFFVDRGFLEIKSPILIPLEYIERMGIDNDTELSKQIFRVDKNFCLRPMLAPNLYNYMRKLDRALPDPIKIFEIGPCYRKESDGKEHLEEFTMLNFGQMGSGCTRENLESIITDFLNHLGIDFKIVGDSCMVYGDTLDVMHGDLELSSAVVGPRPLDREWGIDKPWIGAGFGLERLLKVKHDFKNIKRAARSESYYNGISTNL
In the case of B1, the “ability to incorporate bulky ncAAs” value in experiment [1] (TCO*A, TCO-E, Boc, HEK293T) is reported as “better synthetase for bulky ncAAs; also recorded: able to incorporate bulky ncAAs”. In addition, the “incorporation efficiency relative to PylRS AF” value in experiment [1] (ncAA Boc) is on record as “up to 4.5 ×”; in experiment [1] (ncAA TCO*A, independent of the ncAA concentration used), 1.2 ×; in experiment [1] (ncAA TCO-E, depending on the concentration used), “up to 30 times”. The “incorporation efficiency (mean GFP/mean iRFP), ranking among variants” value is on record as “highest incorporation efficiency” in experiment [1] (ncAA Boc, FIG. 3C); “best incorporation” in experiment [1] (ncAA TCO*A, FIG. 3B); “highest incorporation efficiency” in experiment [1] (ncAA TCO-E, FIG. 3A). Further, the “incorporation of SCO (EGFP signal by FFC)” value in experiment [2] was “can incorporate SCO efficiently”.

B2: PylRS AF A1: PylRS AF variant with 309M, 348G, 405R (SEQ ID NO: 108) (protein)
chain: MDKKPLNTLISATGLWMSRTGTIHKIKHHEVSRSKIYIEMACGDHLVVNNSRSSRTARALRHHKYRKTCKRCRVSDEDLNKFLTKANEDQTSVKVKVVSAPTRTKKAMPKSVARAPKPLENTEAAQAQPSGSKFSPAIPVSTQESVSVPASVSTSISSISTGATASALVKGNTNPITSMSAPVQASAPALTKSQTDRLEVLLNPKDEISLNSGKPFRELESELLSRRKKDLQQIYAEERENYLGKLEREITRFFVDRGFLEIKSPILIPLEYIERMGIDNDTELSKQIFRVDKNFCLRPMLAPNLANYMRKLDRALPDPIKIFEIGPCYRKESDGKEHLEEFTMLNFGQMGSGCTRENLESIITDFLNHLGIDFKIVGDSCMVFGDTLDVMHGDLELSSAVVGPRPLDREWGIDKPWIGAGFGLERLLKVKHDFKNIKRAARSESYYNGISTNL
On to B2, for which, in experiment [1] (ncAA TCO-E, FIG. 3A), the “incorporation efficiency (mean GFP/mean iRFP), ranking among variants” value is recorded as “highest incorporation efficiency”.

B3: PylRS MMA: M. mazei PylRS mutant Y306M, L309M, C348A (SEQ ID NO: 72) (protein)
chain: MDKKPLNTLISATGLWMSRTGTIHKIKHHEVSRSKIYIEMACGDHLVVNNSRSSRTARALRHHKYRKTCKRCRVSDEDLNKFLTKANEDQTSVKVKVVSAPTRTKKAMPKSVARAPKPLENTEAAQAQPSGSKFSPAIPVSTQESVSVPASVSTSISSISTGATASALVKGNTNPITSMSAPVQASAPALTKSQTDRLEVLLNPKDEISLNSGKPFRELESELLSRRKKDLQQIYAEERENYLGKLEREITRFFVDRGFLEIKSPILIPLEYIERMGIDNDTELSKQIFRVDKNFCLRPMLAPNLMNYMRKLDRALPDPIKIFEIGPCYRKESDGKEHLEEFTMLNFAQMGSGCTRENLESIITDFLNHLGIDFKIVGDSCMVYGDTLDVMHGDLELSSAVVGPIPLDREWGIDKPWIGAGFGLERLLKVKHDFKNIKRAARSESYYNGISTNL
B3: in experiment [1] (ncAA TCO-E), the “incorporation efficiency relative to PylRS AF” value is on record as “up to 10 ×”.
